Values belong to the binder of their own block, whether it stands above or below them.
Legend:
[1] = biological target: T1, ligand-binding domain of human FGFR1c (D142 to R365) (human, UniProt P11362 142-365); assay: SPR; FGF23 immobilized, increasing concentrations of FGFR1c ligand-binding domain; KD only in the figure
T1 construct: range 142-365
T1 sequence (looked up): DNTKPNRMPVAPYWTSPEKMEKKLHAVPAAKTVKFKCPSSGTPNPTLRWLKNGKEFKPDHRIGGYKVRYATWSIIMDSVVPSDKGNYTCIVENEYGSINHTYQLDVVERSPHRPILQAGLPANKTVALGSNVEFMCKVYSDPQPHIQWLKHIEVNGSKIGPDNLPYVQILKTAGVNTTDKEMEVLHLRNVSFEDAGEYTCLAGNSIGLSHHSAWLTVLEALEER
Description: (§1) FIGS. 10A-10D show overlays of SPR sensorgrams illustrating binding of FGFR1c to FGF2 (FIG. 10A), FGF19 (FIG. 10B), FGF21 (FIG. 10C), and FGF23 (FIG. 10D), and fitted saturation binding curves. Increasing concentrations of FGFR1c ligand-binding domain were passed over a biosensor chip containing immobilized FGF2, FGF19, FGF21, or FGF23. […] Increasing concentrations of αKlotho-FGFR1c complex were passed over a biosensor chip containing immobilized FGF23. […] FGF2^3C-tail was immobilized on a biosensor chip and increasing concentrations of FGFR1c ligand-binding domain were passed over the chip. Dissociation constants (K_Ds) given in FIGS. 10A-10E were derived from the saturation binding curves.
(§2) Example 2—Analysis of FGF-Heparin and FGF-FGFR-α/Klotho Interactions by Surface Plasmon Resonance Spectroscopy Surface plasmon resonance (SPR) experiments were performed on a Biacore 2000 instrument (Biacore AB), and the interactions were studied at 25° C. in HBS-EP buffer (10 mM HEPES-NaOH, pH 7.4, 150 mM NaCl, 3 mM EDTA, 0.005% (v/v) polysorbate 20). To study endocrine FGF-heparin interactions, a heparin chip was prepared by immobilizing biotinylated heparin (Sigma-Aldrich) on flow channels of a research-grade streptavidin chip (Biacore AB). The coupling density was ~5 fmol mm^-2 of flow channel. […]

[2] = biological target: T1, ligand-binding domain of human FGFR1c …; assay: SPR; FGF23 C-tail peptide immobilized, increasing concentrations of FGFR1c ligand-binding domain
Description: as §1, §2

[3] = biological target: T1, ligand-binding domain of human FGFR1c …; assay: SPR; immobilized FGF21, FGFR1c ligand-binding domain in solution
Description: as §1, §2

binding result [1]: binds
B1: N-terminally hexahistidine-tagged, mature form of human FGF23 (Y25 to I251), R176Q/R179Q (ligand)
chain: YPNASPLLGSSWGGLIHLYTATARNSYHLQIHKNGHVDGAPHQTIYSALMIRSEDAGFVVITGVMSRRYLCMDFRGNIFGSHYFDPENCRFQHQTLENGYDVYHSPQYHFLVSLGRAKRAFLPGMNPPPYSQFLSRRNEIPLIHFNTPIPRQHTQSAEDDSERDPLNVLKPRARMTPAPASCSQELPSAEDNSPMASDPLGVVRGGRVNTHAGGTGPEGCRPFAKFI
notes: also called native FGF23; wild-type FGF23; not shown: N-terminal hexahistidine tag

binding result [2]: no binding
B2: N-terminally hexahistidine-tagged C-terminal tail peptide of FGF23 (S180 to I251) (peptide)
peptide: SAEDDSERDPLNVLKPRARMTPAPASCSQELPSAEDNSPMASDPLGVVRGGRVNTHAGGTGPEGCRPFAKFI
notes: also called FGF23^C-tail; not shown: N-terminal hexahistidine tag

binding result [3]: binds
B3: N-terminally hexahistidine-tagged, mature form of human FGF21 (H29 to S209) (ligand)
chain: HPIPDSSPLLQFGGQVRQRYLYTDDAQQTEAHLEIREDGTVGGAADQSPESLLQLKALKPGVIQILGVKTSRFLCQRPDGALYGSLHFDPEACSFRELLLEDGYNVYQSEAHGLPLHLPGNKSPHRDPAPRGPARFLPLPGLPPALPEPPGILAPQPPDVGSSDPLSMVGPSQGRSPSYAS
notes: also called native FGF21; not shown: N-terminal hexahistidine tag

Source: US9926355 (NEW YORK UNIVERSITY, dated 2018)
